The test system of series [1] is OVCAR3 ovarian cancer model. The series is described as follows: M825 and M825-MMAE in OVCAR3 ovarian cancer model. The class given is in vivo, mice. The following applies: 0.2 mg/kg, equivalent to maximum MMAE in the 10 mg/kg ADC group. Here is the method: Treatment initiated when tumor volume reached approximately 120 mm^3. M825 was given i.v. at 10 mg/kg and M825-MMAE was given i.v. at 1, 3, or 10 mg/kg, 2 times per week for 3.5 weeks. […] The 10 mg/kg ADC group was redosed on Day 56, 2 times per week.

A further series addresses T1, mTEM8-Fc (Mus musculus, UniProt Q9CZ52).
T1 construct: Fc
T1 sequence (Q9CZ52 31-319 limits assumed): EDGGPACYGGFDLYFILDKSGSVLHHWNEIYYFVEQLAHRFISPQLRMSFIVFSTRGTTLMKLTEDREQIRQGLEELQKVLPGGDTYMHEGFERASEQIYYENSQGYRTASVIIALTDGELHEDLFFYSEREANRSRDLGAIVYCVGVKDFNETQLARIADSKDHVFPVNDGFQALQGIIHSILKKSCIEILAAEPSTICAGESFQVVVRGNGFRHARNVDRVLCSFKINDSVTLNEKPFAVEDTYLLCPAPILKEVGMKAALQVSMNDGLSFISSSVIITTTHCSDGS
The series is described as follows: Biocore affinity measurement of anti-TEM8 Fabs, mTEM8-Fc. The series is classed as binding.

The target in the next series is T2, hTEM8-AP (Homo sapiens, UniProt Q9H6X2).
T2 sequence (Q9H6X2 33-321 limits assumed): T1 sequence (Q9CZ52 31-319 limits assumed) with R40K, S104R, A241S
The series is described as follows: Biocore affinity measurement of anti-TEM8 Fabs, hTEM8-AP. The series is classed as binding.

Series [2] is described as follows: Pharmacokinetics of TEM8 antibodies in mouse, single dose. The series is classed as in vivo. An excerpt:
(§1) Tables 8 and 9 show pharmacokinetic properties of TEM8 antibodies according to the present invention in mouse for single dose (Table 8) and multiple dose (Table 9) treatments.

Series [3] is described as follows: Pharmacokinetics of TEM8 antibodies in mouse, multiple dose. The series is classed as in vivo.
Source text: as §1

Another series deals with 3T3 fibroblasts. The series is described as follows: Contractility of 3T3 fibroblasts in the presence of TGFb-1. The class given is cell-based. The following applies: in vitro. Here is the method: 3T3 cells were cultured and contractility in the presence of TGFb-1 was measured in control or M825 exposed cells. […] Contractile forces are thought to contribute to increased cancer cell invasion.

Numbering of substitutions follows the chain as printed. Square brackets hold non-standard residues; d marks the D form. Peptide text beside a SMILES is read from it. * marks the point of attachment. Dolaproine = CO[C@@H]([C@@H]1CCCN1)[C@@H](C)C(=O)O; Dil = CC[C@H](C)[C@H](NC)[C@@H](CC(=O)O)OC; X1 = C[C@@H](N*)[C@@H](O)c1ccccc1; NMeV = CN[C@H](C(=O)O)C(C)C

As for `CC[C@H](C)[C@@H]([C@@H](CC(=O)N1CCC[C@H]1[C@H](OC)[C@@H](C)C(=O)N[C@H](C)[C@@H](O)c1ccccc1)OC)N(C)C(=O)[C@@H](NC(=O)[C@@H](NC)C(C)C)C(C)C` [MMAE, monomethylauristatin (MMAE), reference compound] (H-[NMeV]V[Dil][Dolaproine]-X1), the “effect on tumor growth” value in series [1] was “No effect”.

In the series with mTEM8-Fc, “M825: TEM8 monoclonal antibody (hIgG1), VH SEQ ID NO:1 and VL SEQ ID NO:2” had a ka of 1.7e+06 M⁻¹ s⁻¹ and a kd of 8.942e-05 s⁻¹. In the series with hTEM8-AP, this molecule showed a ka of 3.05e+06 M⁻¹ s⁻¹ and a kd of 0.0001802 s⁻¹. Besides, in series [2] (5 mg/kg), the AUCI worked out at 1310.519 µg·h/mL, the AUCT was 1310.222 µg·h/mL, the CLF turned out to be 3.82 mL/h/kg and the CMAX stood at 46800 ng/mL. In series [2] (5 mg/kg), the HALF came out at 6.03 h, the KEL amounted to 0.1149 h⁻¹, the TMAX came out at 3 h and the VZF stood at 0.03319 L/kg. In series [2] (15 mg/kg), the AUCI came out at 9239.202 µg·h/mL, the AUCT was 8991.767 µg·h/mL, the CLF came to 1.62 mL/h/kg and the CMAX is recorded as 144000 ng/mL. For the same molecule, in series [2] (15 mg/kg), the HALF came out at 23.77 h, the KEL amounted to 0.0292 h⁻¹, the TMAX came out at 3 h and the VZF turned out to be 0.05566 L/kg. In series [3] (5 mg/kg), this molecule came in with an AUCI of 1408.345 µg·h/mL, an AUCT of 1408.201 µg·h/mL, a CLF of 3.55 mL/h/kg and a CMAX of 54300 ng/mL. Moreover, in series [3] (5 mg/kg), the HALF was determined as 9.10 h, the KEL was 0.0762 h⁻¹, the TMAX came to 3 h and the VZF came out at 0.04661 L/kg. Further, in series [3] (15 mg/kg), the AUCI came out at 21649.446 µg·h/mL, the AUCT worked out at 21648.879 µg·h/mL, the CLF came to 0.69 mL/h/kg and the CMAX was determined as 314000 ng/mL. In series [3] (15 mg/kg), this molecule yielded an HALF of 17.05 h, a KEL of 0.0406 h⁻¹, a TMAX of 3 h and a VZF of 0.01705 L/kg. Further, in the series on 3T3 fibroblasts, the “contractility of activated 3T3 fibroblasts” value was “block the contractility”.

B1: M863: TEM8 monoclonal antibody (hIgG1), VH SEQ ID NO:7 and VL SEQ ID NO:8 (antibody, V domains shown)
VH: EVQLVETGAEVKKPGASVKVSCKASGYTFTGYYMHWVRQAPGQGLEWMGWINPTSGSTNYAQKFQGRVTMTRDTSISTAYMELSGLRSDDTAVYYCVRDPGSPKWLAFDPWGQGTLVTVSS
VL: DIQLTQSPSSLSASVGDRVTITCRASRAISRYLNWYQQKPGKAPKLLIYAASSLQSGVSSRFSGSGSGTEFTLTISSLQPEDFATYFCQQTYSPPITFGQGTRLEIKR
modifications: TEM863 mAb VH; TEM863 mAb VL
In series [2] (5 mg/kg), B1 had an AUCI of 1330.847 µg·h/mL, an AUCT of 1330.742 µg·h/mL, a CLF of 3.76 mL/h/kg and a CMAX of 51300 ng/mL. Besides, in series [2] (5 mg/kg), the HALF stood at 8.59 h, the KEL was 0.0807 h⁻¹, the TMAX was found to be 3 h and the VZF came to 0.04656 L/kg. For the same molecule, in series [2] (15 mg/kg), the AUCT amounted to 10721.535 µg·h/mL, the CMAX came out at 355000 ng/mL and the TMAX amounted to 3 h. For the same molecule, in series [3] (5 mg/kg), the AUCI turned out to be 1425.735 µg·h/mL, the AUCT turned out to be 1425.565 µg·h/mL, the CLF worked out at 3.51 mL/h/kg and the CMAX worked out at 58600 ng/mL. In series [3] (5 mg/kg), this molecule came in with an HALF of 14.29 h, a KEL of 0.0485 h⁻¹, a TMAX of 3 h and a VZF of 0.07228 L/kg. Further, in series [3] (15 mg/kg), the AUCI was 7272.672 µg·h/mL, the AUCT turned out to be 7271.7 µg·h/mL, the CLF came out at 2.06 mL/h/kg and the CMAX was found to be 147000 ng/mL. In series [3] (15 mg/kg), this molecule gave an HALF of 12.64 h, a KEL of 0.0549 h⁻¹, a TMAX of 3 h and a VZF of 0.0376 L/kg.

(Values after US10758526B2, “Combination therapies using agents that target tumor-associated stroma or tumor cells and other pathways” (BIOMED VALLEY DISCOVERIES, INC., priority 2014, dated 2020).)
